Test results from paper PMC5120204, “Identification of an orally active small-molecule PTHR1 agonist for the treatment of hypoparathyroidism” (Nature Communications, 2016).
Where two headings read alike, the source gives them in different places. Values belong to the compound of their own block, whether it stands above or below them.

Columns and labels:
[1] = human; ref Calcifi Tissue Int 2010 87:485, J Bone Miner Res 2013 28:2232, J Pharmcol Exp Ther 2009 330:169; cited from earlier work
[2] = test system: OVX rats; experiment: Repeated administration study in OVX rats; type: in vivo, rat; settings: day 84, all treated rats
Method: OVX was carried out in 32-week-old female Crl:CD (SD) rats (Charles River Laboratories). Twelve weeks after surgery, lumbar vertebral BMD (L3–L5) was measured in vivo by dual-energy X-ray absorptiometry (DXA) using a DCS-600EX-IIIR bone densitometer (Hitachi Aloka Medical), and the rats were divided into five groups, each with a similar mean value of BMD and body weight. Sample sizes were determined based on previous experiments with hPTHs and a published study with ibandronate and eldecalcitriol in our laboratories[42] (n=7–10). Then, OVX rats were treated once daily intravenously (vehicle or PCO371 at 3 or 10 mg kg^−1) or orally (vehicle or PCO371 at 30 mg kg^−1) or subcutaneously [vehicle or hPTH(1–34) at 0.9 nmol kg^−1] for 12 weeks. Ten to twelve OVX rats were assigned to each dose group. Nine rats were assigned to the sham-operated control group and were treated with vehicle for PCO371. Ten per cent DMSO (Wako Pure Chemical Industries)/10% Kolliphor EL (Sigma-Aldrich) in 10% hydroxypropyl-β-cyclodextrin (HPCD; Nihon Shokuhin Kako)/0.752% glycine (Wako Pure Chemical Industries) buffer was used as vehicle for PCO371, and phosphate-citrate buffer (pH 6.0) was used as vehicle for hPTH(1–34). To label bone-forming surfaces, tetracycline ([…], Nippon Zenyaku Kogyo) was subcutaneously injected on Day 78 and calcein (8 mg kg^−1, Dōjindo Laboratories) was subcutaneously injected on day 83. Under isoflurane anaesthesia, jugular vein blood was collected immediately before and at 1, 2, 6, 10 and 24 h after administration on day 82 to measure plasma concentration of PCO371 or on day 84 to measure serum Ca levels (o-CPC method, Wako Pure Chemical Industries). Urine was collected for 24 h from metabolic cages on days 84–85 to measure urinary collagen type 1 cross-linked C-telopeptide (CTX) by using the RatLaps ELISA System (Immunodiagnostic Systems). Under isoflurane anaesthesia, blood was collected on day 85 from the abdominal aorta to measure serum osteocalcin level by using the Rat Osteocalcin ELISA System (GE Healthcare). The lumbar spine and bilateral femurs were excised after 12 weeks of treatment. The first lumbar vertebra (L1), 3rd to 5th lumbar vertebrae (L3–L5), the right femur, and the right tibia were preserved in 70% ethanol to measure bone histomorphometry and BMD (DCS-600EX; Hitachi Aloka Medical). Measurement of bone histomorphometry was performed by the Ito Bone Histomorphometry Institute (Niigata, Japan). The second lumbar vertebra (L2) was wrapped in saline-soaked gauze and stored at −80 °C until measurement. Ultimate compressive strength (N) of the L2 vertebra was measured by using a mechanical testing machine (TK-252C; Muromachi Kikai).

[3] = Pharmacokinetics in normal rats
Method: (§3) PCO371 was administered at a dose of 2, 6 or 18 mg kg^−1 orally to 7-week-old normal female rats (RccHan: WIST, JLA; three rats for each dose group), or at a dose of 2, 6 or 18 mg kg^−1 orally to 7-week-old female TPTX rats [Crl:CD(SD), Charles River Laboratories; three TPTX rats for each dose group] or at 30 mg kg^−1 orally or 3, 10 mg kg^−1 intravenously to 55-week-old OVX rats as described above. Blood samples were collected at 15 and 30 min, and 1, 2, 4, 8 and 24 h after administration. […] The concentrations of plasma PCO371 were determined by liquid chromatography–tandem mass spectrometry [LC-MS/MS (API-3200 (AB SCIEX), detection limit: 1 ng ml^−1).

[4] = in vivo; settings: female, Crl:CD(SD), rat, sc
Method: as §3

[5] = target: T1, rat PTHR2 (Rattus norvegicus, UniProt P70555); experiment: cAMP production assay in COS-7 cells expressing rat PTHR2; type: cell-based
T1 construct: expressed in transfected cells; host or cells: COS-7 (transient)
T1 sequence (P70555 25-546): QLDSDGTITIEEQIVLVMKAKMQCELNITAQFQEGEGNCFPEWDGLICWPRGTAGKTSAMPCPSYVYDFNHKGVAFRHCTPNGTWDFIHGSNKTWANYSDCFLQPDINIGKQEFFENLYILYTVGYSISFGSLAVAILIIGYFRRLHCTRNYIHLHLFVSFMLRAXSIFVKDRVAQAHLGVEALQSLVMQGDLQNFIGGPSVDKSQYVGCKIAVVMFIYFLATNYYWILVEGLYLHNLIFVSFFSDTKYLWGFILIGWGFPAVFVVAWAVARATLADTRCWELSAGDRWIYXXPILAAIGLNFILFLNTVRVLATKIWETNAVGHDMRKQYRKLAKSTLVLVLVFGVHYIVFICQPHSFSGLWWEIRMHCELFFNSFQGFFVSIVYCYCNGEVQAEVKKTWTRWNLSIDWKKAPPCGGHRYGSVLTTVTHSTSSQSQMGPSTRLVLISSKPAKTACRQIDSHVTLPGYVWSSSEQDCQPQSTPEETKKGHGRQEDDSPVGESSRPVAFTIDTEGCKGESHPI
Method: (§1) COS-7 cells (ATCC) were seeded into a 96-well flat-bottomed plate (1.4 × 10^4 cells per 100 μl per well) and incubated overnight. The next day, the COS-7 cells were transfected by adding 10 μl of a mixture of hPTHR1, hPTHR2 or mutant hPTHR1 plasmid, rat PTHR1 or rat PTHR2 plasmid, or empty vector (0.1 μg per well), FuGENE HD Transfection Reagent (0.4 μl per well, Promega), and Opti-MEM I Reduced Serum Medium (10 μl per well, Life Technologies) to each well. […] The plate was placed in a 37 °C constant-temperature water bath for 20 min to allow the reaction to proceed. After incubation, the liquid in the wells was discarded, the wells were washed with the assay medium (100 μl per well), and the plate was frozen on dry ice. Next, 40 μl of 50 mmol l^−1 HCl was added to each well, and the plate was stored in a freezer set at ≤−20 °C. The cAMP concentrations were measured by using a cAMP EIA kit (GE Healthcare). EC50 values were determined from three independent experiments in duplicate by a non-linear regression Emax model (JMP ver.9.0.2, SAS Institute). The geometric mean of the EC50 values obtained in three experiments in duplicate was calculated using Microsoft Office Excel 2007. […]

[6] = target: T2, hPTHR2 (Homo sapiens, UniProt P49190); experiment: cAMP production assay in COS-7 cells expressing hPTHR2; type: cell-based; settings: COS-7 cells expressing human PTHR2
T2 construct: expressed in transfected cells; host or cells: COS-7 (transient)
T2 sequence (P49190 25-550): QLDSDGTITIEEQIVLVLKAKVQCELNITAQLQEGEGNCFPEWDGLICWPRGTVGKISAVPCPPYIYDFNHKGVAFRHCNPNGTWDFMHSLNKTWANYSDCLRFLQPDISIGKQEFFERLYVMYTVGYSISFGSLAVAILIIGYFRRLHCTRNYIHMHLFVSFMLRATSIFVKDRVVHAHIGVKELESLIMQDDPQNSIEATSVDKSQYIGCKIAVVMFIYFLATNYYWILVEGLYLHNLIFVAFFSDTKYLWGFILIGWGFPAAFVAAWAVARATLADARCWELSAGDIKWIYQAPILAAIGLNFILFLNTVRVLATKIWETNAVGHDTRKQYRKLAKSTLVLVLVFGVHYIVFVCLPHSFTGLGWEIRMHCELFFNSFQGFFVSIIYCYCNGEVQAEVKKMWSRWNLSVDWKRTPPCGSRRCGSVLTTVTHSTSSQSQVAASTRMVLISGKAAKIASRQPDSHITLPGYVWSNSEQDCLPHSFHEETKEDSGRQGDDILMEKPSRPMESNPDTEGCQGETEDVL
Method: as §1

[7] = design: method as in earlier work; settings: rat; ref Calcifi Tissue Int 2010 87:485, J Bone Miner Res 2013 28:2232, J Pharmcol Exp Ther 2009 330:169; cited from earlier work
[8] = test system: TPTX rats; experiment: Repeated administration study in TPTX rats, study 1; type: in vivo, rat
Method: (§2) TPTX was carried out in 6-week-old female Crl:CD (SD) rats (Charles River Laboratories). Rats with serum Ca levels of <8.0 mg dl^−1 at 5 days after surgery were used in the following experiments. The rats were divided into four groups both in study 1 and 2, each with a similar mean value of serum Ca levels and body weight. Sample sizes were determined as described in the above single administration study. To evaluate the calcemic effects of PCO371 and hPTHs, we defined a target therapeutic range for serum Ca of 7.6–11.2 mg dl^−1, which corresponds to the low normal to normal range of serum Ca levels.
TPTX rats were treated twice daily (at around 09:00 and 19:00 hours) orally (vehicle or PCO371 at 1, 3 or 9 mg kg^−1) or subcutaneously [hPTH(1–34) or vehicle at 9 nmol kg^−1] for 4 weeks. Four rats were assigned to sham control, and treated with vehicle for PCO371. Vehicles for PCO371 and hPTH(1–34) were the same as in the OVX rat study. Under isoflurane anaesthesia, jugular vein blood was collected immediately before and at 6 and 10 h (for PCO371) or at 1 and 10 h (for hPTH) after administrations to measure the serum Ca levels on days 1 (the first dosing day), 7, 14, 22 and 29. Urine was collected for 24 h by using metabolic cages on days 29–30, and Ca excretion was calculated from urine volume and Ca level. Under isoflurane anaesthesia, jugular vein blood was collected 10 h after administrations to measure serum 1,25(OH)2D3 levels on Day 29 by using a 1,25(OH)2D3 RIA kit (Fujirebio). Four or five TPTX rats were assigned to each dose group. Serum and urine Ca levels were measured in the same way as in the single-dosing study. In another experiment, TPTX rats were treated subcutaneously once daily with hPTH(1–84) at 9 nmol kg^−1, for 4 weeks. Serum Ca was measured immediately before and at 2, 6 and 10 h after administration on day 1 (the first dosing day), 7, 14, 21 and 28 using the same method as described above. Urine was collected for 24 h by using metabolic cages on days 28 and 29, and Ca excretion was calculated from urine volume and Ca level.

[9] = test system: patients; design: method as in PMID 23649554; settings: once-daily dosing; cited from earlier work
[10] = test system: TPTX rats; experiment: Single administration study in TPTX rats; type: in vivo, rat; settings: TPTX studies, 0.9 nmol/kg
Method: TPTX was carried out in 6-week-old female Crl:CD(SD) rats (Charles River Laboratories). Rats with serum Ca levels of <8.0 mg dl^−1 at 5 days after surgery were used for the experiment. The rats were divided into six groups, each with a similar mean value of serum Ca levels and body weight. TPTX rats were treated once orally (vehicle or PCO371 at 1.3, 6.5 or 33 mg kg^−1) or subcutaneously (vehicle or hPTH(1–84) (Chugai Pharmaceutical) at 9 nmol kg^−1). Six TPTX rats were assigned to each dose group. The sample size was determined based on previous experiments and a published study with hPTHs and LA-PTH in our laboratories[24] (n=5–6). Vehicle for PCO371 was the same as in the OVX rat study, and phosphate-citrate buffer (pH 6.0) was used as vehicle for hPTH(1–84). Under isoflurane anaesthesia, jugular vein blood was collected immediately before and at 1, 2, 6, 10 and 24 h after administrations to measure serum Ca (o-CPC method, Wako Pure Chemical Industries) and Pi levels (xanthine oxidase method, Wako Pure Chemical Industries).
In another experiment, the effects of a single treatment with PCO371 or hPTH(1–34) on serum Ca and Pi in TPTX rats (6-week-old) were evaluated at the dose of 3, 9.5 or 30 mg kg^−1 (PCO371, p.o.) or 9 nmol kg^−1 (hPTH(1–34), s.c.) according to the same method as that described above.

[11] = Pharmacokinetics in TPTX rats; type: in vivo, rat
[12] = test system: TPTX rats; experiment: Repeated administration study in TPTX rats, study 2 (add-on to alfacalcidol); type: in vivo, rat; settings: alone at 75 ng kg^−1 once-daily oral, 4 weeks
Method: as §2
TPTX rats were orally treated once daily (vehicle; alfacalcidol (Chugai Pharma Manufacturing) at 38 or 75 ng kg^−1; or alfacalcidol at 38 ng kg^−1 plus PCO371 at 6 mg kg^−1) for 4 weeks. Five or six TPTX rats were assigned to each dose group. The vehicle for alfacalcidol was medium-chain triglyceride (Chugai Pharma Manufacturing). Under isoflurane anaesthesia, jugular vein blood was collected immediately before and at 6 and 10 h after administration to measure serum Ca levels on day 1 (the first dosing day), 8, 14, 22 and 28. Urine was collected for 24 h by using metabolic cages on days 28 and 29. Serum and urine Ca levels were measured in the same way as in the single-dosing study.

[13] = female, Crl:CD(SD), rat, plasma, sc, 3 nmol/kg

serum Ca [2]: within the normal range | AUC(0-inf) [3, 13]: 0.99 ± 0.17 ng·h/mL | Cmax [3, 13]: 2.42 ± 0.53 ng/mL | Tmax [3, 13]: 6 ± 6 min | bioavailability [3, 13]: 22% | Tmax ([3]; rat (Table 1)): 5 min | Cmax ([3]; rat, plasma, sc, 0.9 nmol/kg): ~0.125 ng/mL | half-life [4]: 15 min | half-life ([4]; 3 nmol/kg): 18 ± 6 min
Compound: CC[C@H](C)[C@H](NC(=O)[C@H](CCC(=O)O)NC(=O)[C@H](CO)NC(=O)[C@@H](NC(=O)[C@@H](N)CO)C(C)C)C(=O)N[C@@H](CCC(N)=O)C(=O)N[C@@H](CC(C)C)C(=O)N[C@@H](CCSC)C(=O)N[C@@H](Cc1cnc[nH]1)C(=O)N[C@@H](CC(N)=O)C(=O)N[C@@H](CC(C)C)C(=O)NCC(=O)N[C@@H](CCCCN)C(=O)N[C@@H](Cc1cnc[nH]1)C(=O)N[C@@H](CC(C)C)C(=O)N[C@@H](CC(N)=O)C(=O)N[C@@H](CO)C(=O)N[C@@H](CCSC)C(=O)N[C@@H](CCC(=O)O)C(=O)N[C@@H](CCCN=C(N)N)C(=O)N[C@H](C(=O)N[C@@H](CCC(=O)O)C(=O)N[C@@H](Cc1c[nH]c2ccccc12)C(=O)N[C@@H](CC(C)C)C(=O)N[C@@H](CCCN=C(N)N)C(=O)N[C@@H](CCCCN)C(=O)N[C@@H](CCCCN)C(=O)N[C@@H](CC(C)C)C(=O)N[C@@H](CCC(N)=O)C(=O)N[C@@H](CC(=O)O)C(=O)N[C@H](C(=O)N[C@@H](Cc1cnc[nH]1)C(=O)N[C@@H](CC(N)=O)C(=O)N[C@@H](Cc1ccccc1)C(=O)O)C(C)C)C(C)C [hPTH(1–34), reference compound]
Tmax [1]: 30 min

Compound: TIP39: tuberoinfundibular peptide of 39 residues, the cognate ligand for PTHR2 [reference compound]
cAMP production [5]: showed an increase in cAMP production | cAMP production [6]: showed an increase in cAMP production

Compound: hPTH(1–84): the full-length, native PTH molecule called human PTH(1–84) [reference compound]
Tmax [7]: 5 to 15 min | urinary Ca excretion ([8]; after 4-week treatment, s.c. once daily 9 nmol kg^−1): No increase | serum Ca ([8]; subcutaneous 9 nmol kg^−1 for 4 weeks, target therapeutic range 7.6–11.2 mg dl^−1): transiently increased serum Ca to within the target therapeutic range | Tmax at the first peak [1]: 15 min | Tmax at the second peak [1]: 120 min | duration of observed effects [9]: up to 24 h | patients with hypercalcemia at peak times [9]: 71% | time of peak Ca levels after administration [9]: around 7 h | serum Ca levels [10]: failed to induce any changes | AUC ([11]; s.c. 30 nmol kg-1): 1.80 ± 0.78 ng·h/mL | Cmax ([11]; s.c. 30 nmol kg-1): 3.42 ± 1.10 ng/mL | T1/2 ([11]; s.c. 30 nmol kg-1): 12 ± 6 min | Tmax ([11]; s.c. 30 nmol kg-1): 12 ± 12 min | AUC ([11]; s.c. 100 nmol kg-1): 8.55 ± 4.63 ng·h/mL | Cmax ([11]; s.c. 100 nmol kg-1): 8.67 ± 1.97 ng/mL | T1/2 ([11]; s.c. 100 nmol kg-1): 102 ± 132 min | Tmax ([11]; s.c. 100 nmol kg-1): 6 ± 6 min | AUC ([11]; s.c. 300 nmol kg-1): 21.0 ± 5.58 ng·h/mL | Cmax ([11]; s.c. 300 nmol kg-1): 39.7 ± 10.3 ng/mL | T1/2 ([11]; s.c. 300 nmol kg-1): 66 ± 54 min | Tmax ([11]; s.c. 300 nmol kg-1): 6 ± 6 min

Compound: C=C1/C(=C\C=C2/CCC[C@]3(C)[C@@H]([C@H](C)CCCC(C)C)CC[C@@H]23)C[C@@H](O)C[C@@H]1O [Alfacalcidol, 1α-hydroxycholecalciferol, reference compound]
serum Ca [12]: normalized the serum Ca to within or above the target therapeutic range | urinary Ca excretion [12]: considerable urinary Ca excretion
